Reference: publication PMC11417995 (2024)

Target: ubiquitin (Homo sapiens, UniProt P0CG47)
Experiment: PPI-CONA

Kd: 12.2 µM
B1: CDC34A (protein)
chain: MARPLVPSSQKALLLELKGLQEEPVEGFRVTLVDEGDLYNWEVAIFGPPNTYYEGGYFKARLKFPIDYPYSPPAFRFLTKMWHPNIYETGDVCISILHPPVDDPQSGELPSERWNPTQNVRTILLSVISLLNEPNTFSPANVDASVMYRKWKESKGKDREYTDIIRKQVLGTKVDAERDGVKVPTTLAEYCVKTKAPAPDEGSDLFYDDYYEDGEVEEEADSCFGDDEDDSGTEES
modifications: CC0651
